# Reference: PMC5658359, “A potent small-molecule inhibitor of the DCN1-UBC12 interaction that selectively blocks cullin 3 neddylation” (Nature Communications, 2017)
# Primed or numbered codes have the meaning given here. Where no end group is shown, it is not given here. [ ]: non-standard residue; d: D form. Ala(benzothiazol-2-yl)′ = not defined here; Phe(2-Cl) = N[C@@H](Cc1ccccc1Cl)C(=O)O; 1Nal = N[C@@H](Cc1cccc2ccccc12)C(=O)O; 2Nal = N[C@@H](Cc1ccc2ccccc2c1)C(=O)O; hPhe = N[C@@H](CCc1ccccc1)C(=O)O
# Molecular target: T1, human DCN1 (residues 58–259), N-terminal His6 tag (human, UniProt Q96GG9 58-259)
# T1 construct: DCN1 (defective in cullin neddylation 1), human, residues 58-259, cloned into pDEST17; residues 60-251 are visible in PDB 5UFI; also called defective in cullin neddylation 1; source: Rosetta2 cells, purified (Ni-NTA, Superdex 75); not shown: His6, N-terminal, kept
# T1 sequence (Q96GG9 58-259): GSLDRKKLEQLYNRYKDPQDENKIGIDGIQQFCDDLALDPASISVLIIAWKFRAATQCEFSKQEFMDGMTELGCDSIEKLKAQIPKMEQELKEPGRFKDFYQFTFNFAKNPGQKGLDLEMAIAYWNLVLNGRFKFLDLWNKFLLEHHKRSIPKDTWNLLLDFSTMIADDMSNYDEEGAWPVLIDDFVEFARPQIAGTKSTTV
# Assay: fluorescence polarisation; competitive: peptide added to pre-incubated DCN1 (50 nM) and FAM-labelled small-molecule probe 46 (5 nM); 100 mM phosphate buffer pH 6.5, 0.02% Tween-20, 2% DMSO; room temperature, 30 min; Ki calculated from IC50
# Settings: both partners purified
binder,measurement,value
"MIKLFS (peptide, UniProt P61081 1-6, looked up, UBC12, N-terminal 6 residues (Met1 to Ser6; Leu7 removed from 6); Terminal groups surmised Ac-...-NH2; source: synthetic peptide) [UBC12 peptide 7]",fold loss in binding affinity (against 6),3 fold
"MIKLFSL (peptide, UniProt P61081 1-7, looked up, UBC12, N-terminal 7 residues (Met1 to Leu7; Lys8 removed from 5); Terminal groups surmised Ac-...-NH2; source: synthetic peptide) [UBC12 seven-residue peptide (6)]",fold loss in binding affinity (against 5),3 fold
[Ala(5-Cl-benzothiazol-2-yl)]IKL [compound 25 (24 with 5-Cl on the benzothiazol-2-yl)],fold less potent than 24,17 fold
"MIKLFSLKQQK (peptide, UniProt P61081 1-11, looked up, UBC12, N-terminal 11 residues (truncation of Lys12 from the 12-residue peptide); Terminal groups surmised Ac-...-NH2; source: synthetic peptide) [UBC12 peptide 2 (peptide 1 without Lys12)]",binding result,binds
[Phe(2-Cl)]IKL [compound 13 (11 with Cl at the ortho position of the phenyl ring)],fold decrease in binding affinity (against 11),3 fold
"MIKLF (peptide, UniProt P61081 1-5, looked up, UBC12, N-terminal 5 residues (Met1 to Phe5; Ser6 deleted from 7); Terminal groups surmised Ac-...-NH2; source: synthetic peptide) [UBC12 peptide 8]",binding result,binds
[Ala(6-isopropyl-benzothiazol-2-yl)]IKL [compound 27 (26 with the 6-Cl replaced by an isopropyl group)],Ki,5 nM
[1Nal]IKL [compound 22 (11 with the phenyl replaced by naphthalen-1-yl)],Ki,354000 nM
[hPhe]IKL [compound 12 (tetrapeptide 9 with Met1 replaced by homophenylalanine)],fold decrease in binding affinity (reference not named: 9 or 11),6 fold
[2Nal]IKL [compound 23 (11 with the phenyl replaced by naphthalen-2-yl)],fold more potent than 11,11 fold
[Ala(6-Cl-benzothiazol-2-yl)]IKL [compound 26 (24 with 6-Cl on the benzothiazol-2-yl)],fold more potent than 24,4 fold
"MIKLFSLKQQ (peptide, UniProt P61081 1-10, looked up, Terminal groups surmised Ac-...-NH2; source: synthetic peptide) [UBC12 peptide 3]",binding result,binds
[Ala(benzothiazol-2-yl)′]IKL [compound 24 (11 with the phenyl replaced by benzothiazol-2-yl)],Ki,150 nM
"MIKLFSLKQ (peptide, UniProt P61081 1-9, looked up, Terminal groups surmised Ac-...-NH2; source: synthetic peptide) [UBC12 peptide 4]",binding result,binds
"MIKLFSLK (peptide, UniProt P61081 1-8, looked up, UBC12, N-terminal 8 residues (Met1 to Lys8); Terminal groups surmised Ac-...-NH2; source: synthetic peptide) [UBC12 peptide 5]",binding result,binds
